Experimental data published in paper PMC12245071.

Target: Bacteriophage T4 capsid, major capsid protein gp23* (bacteriophage T4)
Assay: co-sedimentation

| Substance | copies per capsid (copies per capsid) |
| --- | --- |
| M2e-Hoc fusion (influenza M2e peptide on the tip of the T4 Hoc fiber) | 90 |
| Soc-SpyCatcher displayed on the T4 phage capsid (T4-SpyCatcher phage) (designed binder) | 205 |
